Experimental data reported in US20260132197A1 (NANJING LEGEND BIOTECH, published 2026).
Substitutions are numbered along the chain they refer to. In names and notes the source's numbering stands. Values belong to the binder of their own block, whether it stands above or below them.

Tests used:
Human CD47-C33G [1] = biological target: T1, Human CD47-C33G (human, UniProt Q08722 19-135); assay: SPR, IgG captured, CD47 in flow; exp 2;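 further: IgG from HEK293 cell supernatants tested by SPR on a BIAcore T200, C33G mutein prevents IgV homodimers for monovalent affinity, KD derived from association and dissociation rates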
T1 construct: also called CD47 mutein with C33G mutation

[2] = biological target: T2, wild type human CD47 (Acro Biosystems, cat. no. CD7-H5227) (human, UniProt Q08722 19-139); assay: SPR, IgG captured, CD47 in flow; exp 2;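 further: IgG from HEK293 cell supernatants tested by SPR on a BIAcore T200, C33G mutein prevents IgV homodimers for monovalent affinity, KD derived from association and dissociation rates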
T2 construct: Bought protein used as SPR analyte; also called Human CD47 wt; wild-type CD47

Human CD47-C33G [3] = biological target: T1, Human CD47-C33G; assay: SPR, IgG captured, CD47 in flow; exp 1;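 further: biacore T200 SPR using IgG from supernatants of transfected HEK293 cells, rate constants fitted to association and dissociation curves, Kd derived from koff over kon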
[4] = biological target: T2, wild type human CD47 (Acro Biosystems, …); assay: SPR, IgG captured, CD47 in flow; exp 1;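 further: biacore T200 SPR using IgG from supernatants of transfected HEK293 cells, rate constants fitted to association and dissociation curves, Kd derived from koff over kon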
Human CD47-C33G [5] = biological target: T1, Human CD47-C33G; assay: SPR, IgG captured, CD47 in flow; exp 4;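 further: biacore T200 SPR using IgG from transfected HEK293 supernatants against wild-type human CD47 or its C33G mutein, rates fitted to association and dissociation curves, KD estimated from them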
[6] = biological target: T2, wild type human CD47 (Acro Biosystems, …); assay: SPR, IgG captured, CD47 in flow; exp 4;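 further: biacore T200 SPR using IgG from transfected HEK293 supernatants against wild-type human CD47 or its C33G mutein, rates fitted to association and dissociation curves, KD estimated from them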
[7] = biological target: T3, human CD47 on cells (SHP-77 tumor cells, human red blood cells, CCRF-CEM cells, human CD47 CHO-K1 stable cell … (human, UniProt Q08722 19-323)); assay: flow cytometry on SHP-77 cells
T3 construct: whole, on cells; also called RBC

[8] = biological target: T3, human CD47 on cells (SHP-77 tumor …); assay: flow cytometry on human RBCs;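 further: antibody binding measured by flow cytometry as geometric mean fluorescence intensity over a range of antibody concentrations, with EC50 and maximum taken from a sigmoidal dose-response fit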
Human CD47-C33G [9] = biological target: T1, Human CD47-C33G; assay: SPR, IgG captured, CD47 in flow; exp 3;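 further: biacore T200 SPR with antibodies taken from supernatants of transfected HEK293 cells, C33G mutein avoiding IgV homodimers for monovalent affinity, Kd derived from association and dissociation rate constants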
[10] = biological target: T2, wild type human CD47 (Acro Biosystems, …); assay: SPR, IgG captured, CD47 in flow; exp 3;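 further: biacore T200 SPR with antibodies taken from supernatants of transfected HEK293 cells, C33G mutein avoiding IgV homodimers for monovalent affinity, Kd derived from association and dissociation rate constants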
[11] = biological target: T3, human CD47 on cells (SHP-77 tumor …); assay: cell-based or functional assay

B1: 108VH5.M14 / 108VL1.M5 (antibody, human IgG4 S228P, kappa, V domains shown)
VH: EVQLVQSGAEVKKPGASVKVSCKASGYTFTHHWIHWVRQAPGQGLEWMGMIDASDGETRYAQKFQGRVTMTRDTSTSTVYMELSSLRSEDTAVYYCARLGRYYFDYWGQGTLVTVSS
VL: EIVLTQSPATLSLSPGERATLSCRASQSVSSYLAWYQQKPGQAPRLLIYGASNRATGIPARFSGSGSGTDFTLTISSLEPEDFAVYYCGESYGHLYTFGGGTKVEIKR
notes: Full-length IgG4 (S228P), kappa; also called VH5.M14 VL1.M5
- Kd (Human CD47-C33G [1]): 14 nM
- koff (Human CD47-C33G [1]): 0.0037 s⁻¹
- kon (Human CD47-C33G [1]): 260000 M⁻¹ s⁻¹
- Kd [2]: 2.6 nM
- koff [2]: 0.0018 s⁻¹
- kon [2]: 690000 M⁻¹ s⁻¹

B2: 108VH5.M8 / 108VL1.M5 (antibody, human IgG4 S228P, kappa, V domains shown)
VH: B1 VH with T28S, G56S, Q65K, G66D
VL: B1 VL
notes: Full-length IgG4 (S228P), kappa; also called VH5.M8 VL1.M5
- Kd (Human CD47-C33G [3]): 15 nM
- koff (Human CD47-C33G [3]): 0.0044 s⁻¹
- kon (Human CD47-C33G [3]): 300000 M⁻¹ s⁻¹
- Kd [4]: 3 nM
- koff [4]: 0.0022 s⁻¹
- kon [4]: 720000 M⁻¹ s⁻¹

B3: 108VH5.M5 / 108VL1.M5 (antibody, human IgG4 S228P, kappa, V domains shown)
VH: B1 VH with G56S, Y60L, A61S, Q65K, G66D
VL: B1 VL
notes: Full-length IgG4 (S228P), kappa; also called VH5.M5 VL1.M5
- Kd (Human CD47-C33G [3]): 6.2 nM
- koff (Human CD47-C33G [3]): 0.0021 s⁻¹
- kon (Human CD47-C33G [3]): 330000 M⁻¹ s⁻¹
- Kd [4]: 1.3 nM
- koff [4]: 0.00096 s⁻¹
- kon [4]: 720000 M⁻¹ s⁻¹

B4: 108VH5.M10 / 108VL1.M5 (antibody, human IgG4 S228P, kappa, V domains shown)
VH: B1 VH with G56S
VL: B1 VL
notes: Full-length IgG4 (S228P), kappa; also called VH5.M10 VL1.M5
- Kd (Human CD47-C33G [1]): 16 nM
- koff (Human CD47-C33G [1]): 0.004 s⁻¹
- kon (Human CD47-C33G [1]): 250000 M⁻¹ s⁻¹
- Kd [2]: 2.8 nM
- koff [2]: 0.0019 s⁻¹
- kon [2]: 660000 M⁻¹ s⁻¹

B6: 108VH5.M17 / 108VL1.M5 (antibody, human IgG4 S228P, kappa, V domains shown)
VH: B1 VH with I34M, D55E
VL: B1 VL
notes: Full-length IgG4 (S228P), kappa; also called VH5.M17 VL1.M5
- Kd (Human CD47-C33G [9]): 1300 nM
- koff (Human CD47-C33G [9]): 0.084 s⁻¹
- kon (Human CD47-C33G [9]): 64000 M⁻¹ s⁻¹
- Kd [10]: 18 nM
- koff [10]: 0.0084 s⁻¹
- kon [10]: 460000 M⁻¹ s⁻¹

The remaining lines, values ahead:

- Kd (Human CD47-C33G [5]): 33 nM
- koff (Human CD47-C33G [5]): 0.0063 s⁻¹
- kon (Human CD47-C33G [5]): 190000 M⁻¹ s⁻¹
- Kd [6]: 6.2 nM
- koff [6]: 0.0028 s⁻¹
- kon [6]: 450000 M⁻¹ s⁻¹
- EC50 [7]: 7.1 nM
- Fitted Maximal MFI [7]: 39600 MFI
- EC50 [8]: 4 nM
- Fitted Maximal MFI [8]: 35500 MFI
B5: 108VH5.M25 / 108VL1.M5 (antibody, human IgG4 S228P, kappa, V domains shown)
VH: B1 VH with I34M, G56R
VL: B1 VL
notes: Full-length IgG4 (S228P), kappa; also called VH5.M25 VL1.M5

- Kd (Human CD47-C33G [5]): 51 nM
- koff (Human CD47-C33G [5]): 0.008 s⁻¹
- kon (Human CD47-C33G [5]): 160000 M⁻¹ s⁻¹
- Kd [6]: 6.5 nM
- koff [6]: 0.0032 s⁻¹
- kon [6]: 490000 M⁻¹ s⁻¹
- CCRF-CEM phagocytosis EC50 [11]: 0.32 nM
- CCRF-CEM phagocytosis, Phagocytosis (%) [11]: 51.9%
- EC50 [7]: 11.9 nM
- Fitted Maximal MFI [7]: 37400 MFI
- EC50 [8]: 9.2 nM
- Fitted Maximal MFI [8]: 40800 MFI
B7: 108VH5.M21 / 108VL1.M5 (antibody, human IgG4 S228P, kappa, V domains shown)
VH: B1 VH with I34M, G56F
VL: B1 VL
notes: Full-length IgG4 (S228P), kappa; also called VH5.M21 VL1.M5
